# T1: CD22-Fc (R&D Systems Cat. No. 1968SL) (human, UniProt P20273 20-687)
# T1 construct: Bought reagent; also called CD22 antigen; huCD22-Fc; not shown: Fc part of the bought fusion
# T1 sequence (looked up): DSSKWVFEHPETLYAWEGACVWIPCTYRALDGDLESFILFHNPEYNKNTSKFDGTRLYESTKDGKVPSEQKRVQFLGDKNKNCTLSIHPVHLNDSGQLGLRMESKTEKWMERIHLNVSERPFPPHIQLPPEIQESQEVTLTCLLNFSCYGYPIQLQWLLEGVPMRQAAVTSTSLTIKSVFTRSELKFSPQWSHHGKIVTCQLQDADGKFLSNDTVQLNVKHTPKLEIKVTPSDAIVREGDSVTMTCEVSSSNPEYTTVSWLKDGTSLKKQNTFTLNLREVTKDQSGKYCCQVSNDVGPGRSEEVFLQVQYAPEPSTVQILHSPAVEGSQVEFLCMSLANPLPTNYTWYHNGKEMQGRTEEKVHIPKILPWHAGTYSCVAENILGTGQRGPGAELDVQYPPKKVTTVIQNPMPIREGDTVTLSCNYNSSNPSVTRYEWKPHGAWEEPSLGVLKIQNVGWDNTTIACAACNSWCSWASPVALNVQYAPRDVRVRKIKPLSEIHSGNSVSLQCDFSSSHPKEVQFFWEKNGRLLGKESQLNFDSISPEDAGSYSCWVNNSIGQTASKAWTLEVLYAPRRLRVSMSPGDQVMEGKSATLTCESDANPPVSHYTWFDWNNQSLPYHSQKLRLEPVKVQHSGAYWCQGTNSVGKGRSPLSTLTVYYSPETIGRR
# Biological target: T1, CD22-Fc (R&D Systems Cat. No. 1968SL)
# Test: competition ELISA on coated CD22-Fc; competitor biotinylated chimeric RFB4
# Protocol: 96 well MaxiSorp plates (Nunc) were coated with 1.0 μg/ml CD22-Fc (R&D Systems Cat. No. 1968SL) in Dulbecco's PBS (PAA Laboratories, Yeovil, UK) (60 μl final volume) at 4° C. overnight. Plates were blocked with Dulbecco's PBS-2% BSA for 1 hour at room temperature. Plates were washed 3 times with wash buffer (0.05% Tween20 in Dulbecco's-PBS). […] All samples were tested in duplicate. Plates were incubated for 1 h at room temperature and washed 3 times with wash buffer. 60 μl of a 1 in 1000 dilution of Streptavidin horse radish peroxidase (HRP) (Sigma-Aldrich) was added and incubated for 1 hour at room temperature. Plates were washed 3 times with wash buffer and 60 μl of 3,3′,5,5′-tetramethybenzidine (TMB) substrate (Invitrogen) was added and incubated at room temperature in the dark to allow the colour to develop. The reaction was stopped by adding 50 μl of 3M HCl. Plates were read at 450 nm using Dynex plate reader.
row,Binder,IC50 relative to Chimeric RFB4 IgG1
1,"humanized RFB4 antibody VH6/VK2 (antibody, human IgG1, V domains shown) VH: EVQLVESGGGLVKPGGSLKLSCAASGFAFSIYDMSWVRQAPGKGLEWVAYISSGGGTTYYPDTVKGRFTISRDNAKNSLYLQMSSLRAEDTAMYYCARHSGYGSSYGVLFAYWGQGTLVTVSS VL: DIQMTQSPSSLSASVGDRVTITCRASQDISNYLNWYQQKPGKAVKLLIYYTSILHSGVPSRFSGSGSGTDYTLTISSLQPEDFATYFCQQGNTLPWTFGGGTKVEIK",1 relative to Chimeric RFB4 IgG1
2,"humanized RFB4 antibody VH5/VK1 (antibody, human IgG1, V domains shown) VH: EVQLVESGGGLVKPGGSLKLSCAASGFAFSIYDMSWVRQAPGKGLEWVAYISSGGGTTYYPDTVKGRFTISRDNAKNSLYLQMNSLRAEDTAMYYCARHSGYGSSYGVLFAYWGQGTLVTVSS VL: DIQMTQSPSSLSASVGDRVTITCRASQDISNYLNWYQQKPGKAVKLLIYYTSILHSGVPSRFSGSGSGTDYTLTISSLQQEDFATYFCQQGNTLPWTFGGGTKVEIK",0.9 relative to Chimeric RFB4 IgG1
3,"humanized RFB4 antibody VH5/VK4 (antibody, human IgG1, V domains shown) VH: EVQLVESGGGLVKPGGSLKLSCAASGFAFSIYDMSWVRQAPGKGLEWVAYISSGGGTTYYPDTVKGRFTISRDNAKNSLYLQMNSLRAEDTAMYYCARHSGYGSSYGVLFAYWGQGTLVTVSS VL: DIQMTQSPSSVSASVGDRVTITCRASQDISNYLNWYQQKPGKAPKLLIYYTSILHSGVPSRFSGSGSGTDYTLTISSLQPEDFATYFCQQGNTLPWTFGGGTKVEIK",1 relative to Chimeric RFB4 IgG1
4,"humanized RFB4 antibody VH4/VK1 (antibody, human IgG1, V domains shown) VH: EVQLVESGGGLVKPGGSLRLSCAASGFAFSIYDMSWVRQAPGKGLEWVAYISSGGGTTYYPDTVKGRFTISRDNAKNSLYLQMSSLRAEDTAMYYCARHSGYGSSYGVLFAYWGQGTLVTVSS VL: DIQMTQSPSSLSASVGDRVTITCRASQDISNYLNWYQQKPGKAVKLLIYYTSILHSGVPSRFSGSGSGTDYTLTISSLQQEDFATYFCQQGNTLPWTFGGGTKVEIK",0.9 relative to Chimeric RFB4 IgG1
5,"humanized RFB4 antibody VH6/VK1 (antibody, human IgG1, V domains shown) VH: EVQLVESGGGLVKPGGSLKLSCAASGFAFSIYDMSWVRQAPGKGLEWVAYISSGGGTTYYPDTVKGRFTISRDNAKNSLYLQMSSLRAEDTAMYYCARHSGYGSSYGVLFAYWGQGTLVTVSS VL: DIQMTQSPSSLSASVGDRVTITCRASQDISNYLNWYQQKPGKAVKLLIYYTSILHSGVPSRFSGSGSGTDYTLTISSLQQEDFATYFCQQGNTLPWTFGGGTKVEIK",0.9 relative to Chimeric RFB4 IgG1
6,"humanized RFB4 antibody VH3/VK4 (antibody, human IgG1, V domains shown) VH: EVQLVESGGGLVKPGGSLKLSCAASGFAFSIYDMSWVRQAPGKGLEWVAYISSGGGTTYYPDTVKGRFTISRDNAKNTLYLQMSSLRAEDTAMYYCARHSGYGSSYGVLFAYWGQGTLVTVSS VL: DIQMTQSPSSVSASVGDRVTITCRASQDISNYLNWYQQKPGKAPKLLIYYTSILHSGVPSRFSGSGSGTDYTLTISSLQPEDFATYFCQQGNTLPWTFGGGTKVEIK",1.1 relative to Chimeric RFB4 IgG1
7,"humanized RFB4 antibody VH4/VK4 (antibody, human IgG1, V domains shown) VH: EVQLVESGGGLVKPGGSLRLSCAASGFAFSIYDMSWVRQAPGKGLEWVAYISSGGGTTYYPDTVKGRFTISRDNAKNSLYLQMSSLRAEDTAMYYCARHSGYGSSYGVLFAYWGQGTLVTVSS VL: DIQMTQSPSSVSASVGDRVTITCRASQDISNYLNWYQQKPGKAPKLLIYYTSILHSGVPSRFSGSGSGTDYTLTISSLQPEDFATYFCQQGNTLPWTFGGGTKVEIK",1 relative to Chimeric RFB4 IgG1
8,"humanized RFB4 antibody VH5/VK2 (antibody, human IgG1, V domains shown) VH: EVQLVESGGGLVKPGGSLKLSCAASGFAFSIYDMSWVRQAPGKGLEWVAYISSGGGTTYYPDTVKGRFTISRDNAKNSLYLQMNSLRAEDTAMYYCARHSGYGSSYGVLFAYWGQGTLVTVSS VL: DIQMTQSPSSLSASVGDRVTITCRASQDISNYLNWYQQKPGKAVKLLIYYTSILHSGVPSRFSGSGSGTDYTLTISSLQPEDFATYFCQQGNTLPWTFGGGTKVEIK",1 relative to Chimeric RFB4 IgG1
9,"humanized RFB4 antibody VH3/VK1 (antibody, human IgG1, V domains shown) VH: EVQLVESGGGLVKPGGSLKLSCAASGFAFSIYDMSWVRQAPGKGLEWVAYISSGGGTTYYPDTVKGRFTISRDNAKNTLYLQMSSLRAEDTAMYYCARHSGYGSSYGVLFAYWGQGTLVTVSS VL: DIQMTQSPSSLSASVGDRVTITCRASQDISNYLNWYQQKPGKAVKLLIYYTSILHSGVPSRFSGSGSGTDYTLTISSLQQEDFATYFCQQGNTLPWTFGGGTKVEIK",0.8 relative to Chimeric RFB4 IgG1
10,"humanized RFB4 antibody VH6/VK4 (antibody, human IgG1, V domains shown) VH: EVQLVESGGGLVKPGGSLKLSCAASGFAFSIYDMSWVRQAPGKGLEWVAYISSGGGTTYYPDTVKGRFTISRDNAKNSLYLQMSSLRAEDTAMYYCARHSGYGSSYGVLFAYWGQGTLVTVSS VL: DIQMTQSPSSVSASVGDRVTITCRASQDISNYLNWYQQKPGKAPKLLIYYTSILHSGVPSRFSGSGSGTDYTLTISSLQPEDFATYFCQQGNTLPWTFGGGTKVEIK",1 relative to Chimeric RFB4 IgG1
11,"humanized RFB4 antibody VH4/VK2 (antibody, human IgG1, V domains shown) VH: EVQLVESGGGLVKPGGSLRLSCAASGFAFSIYDMSWVRQAPGKGLEWVAYISSGGGTTYYPDTVKGRFTISRDNAKNSLYLQMSSLRAEDTAMYYCARHSGYGSSYGVLFAYWGQGTLVTVSS VL: DIQMTQSPSSLSASVGDRVTITCRASQDISNYLNWYQQKPGKAVKLLIYYTSILHSGVPSRFSGSGSGTDYTLTISSLQPEDFATYFCQQGNTLPWTFGGGTKVEIK",1.1 relative to Chimeric RFB4 IgG1
12,"humanized RFB4 antibody VH3/VK2 (antibody, human IgG1, V domains shown) VH: EVQLVESGGGLVKPGGSLKLSCAASGFAFSIYDMSWVRQAPGKGLEWVAYISSGGGTTYYPDTVKGRFTISRDNAKNTLYLQMSSLRAEDTAMYYCARHSGYGSSYGVLFAYWGQGTLVTVSS VL: DIQMTQSPSSLSASVGDRVTITCRASQDISNYLNWYQQKPGKAVKLLIYYTSILHSGVPSRFSGSGSGTDYTLTISSLQPEDFATYFCQQGNTLPWTFGGGTKVEIK",1 relative to Chimeric RFB4 IgG1
